Reference: US20140227188

Test system: T1, Cathepsin E-activatable 5-ALA prodrug, H-Arg-Gln-Ala-Gly-Phe-Ser-Leu-5-ALA-OH
T1 sequence: RQAGFSL

Row | Substance | proteolytic cleavage of the prodrug, LC-MS (50 pmol and 100 pmol enzyme) | proteolytic cleavage of the prodrug, fragments identified by LC-MS (50 pmol enzyme)
1 | Cathepsin B (purified proteolytic enzyme) | A higher concentration of Cath B and D (100 pmol) showed no sign of cleavage of the 5-ALA prodrug at the link between 5-ALA and the rest of the peptide substrate | –
2 | Cathepsin E (purified proteolytic enzyme) | – | Cath E was the only tested protease capable of cleaving the 5-ALA prodrug to two major metabolic fragments
3 | Cathepsin D (purified proteolytic enzyme) | A higher concentration of Cath B and D (100 pmol) showed no sign of cleavage of the 5-ALA prodrug at the link between 5-ALA and the rest of the peptide substrate | –
